Source: patent US20230042694A1 (SUZHOU CUREMED BIOMEDICAL TECHNOLOGY, published 2023)

Each binder was assayed against KRAS protein (UniProt P01116 1-186, limits assumed) (assay: cell-based or functional assay).

Row | Binder | Percentage of KRAS protein level (Western Blot, H358 cells, 6 hours after transfection; protein level of EV29-K19-VHKC as control) [%]
1 | recombinant polypeptide βTrCP-K19 (N-βTrCP (second polypeptide)-linker peptide-K19 (first polypeptide)-C) (other) MGGLDYKDDDDKASDPAEAVLQEKALKFMNSSEREDCNNGEPPRKIIPEKNSLRQTYNSCARLCLNQETVCLASTAMKTENCVAKTKLANGTSSMIVPKQRKLSASYEKEKELCVKYFEQWSESDQVEFVEHLISQMCHYQHGHINSYLKPMLQRDFITALPARGLDHIAENILSYLDAKSLCAAELVCKEWYRVTSDGMLWKKLIERMVRTDSLWRGLAERRGWGQYLFKNKPPDGNAPPNSFYRALYPKIIQDIETIESNWRCGRHSLQRIHCRSGSGSGSGMDLGKKLLEAARAGQDDEVRILMANGADVNASDRGGGTPLHLAAAGGHLEIVEVLLKRGADVSAADLHGQSPLHLAAMVGHLEIVEVLLKYGADVNAKDTMGATPLHLAARSGHLEIVEELLKNGADMNAQDKFGKTTFDISTDNGNEDLAEILQKL | 19.3
2 | recombinant polypeptide FBW7-K19 (N-FBW7 (second polypeptide)-linker peptide-K19 (first polypeptide)-C) (other) MGGLDYKDDDDKASCVPRSGLILSCICLYCGVLLPVLLPNLPFLTCLSMSTLESVTYLPEKGLYCQRLPSSRTHGGTESLKGKNTENMGFYGTLKMIFYKMKRKLDHGSEVRSFSLGKKPCKVSEYTSTTGLVPCSATPTTFGDLRAANGQGQQRRRITSVQPPTGLQEWLKMFQSWSGPEKLLALDELIDSCEPTQVKHMMQVIEPQFQRDFISLLPKELALYVLSFLEPKDLLQAAQTCRYWRILAEDNLLWREKCKEEGIDEPLHIKRRKVIKPGFIHSPWKSAYIRQHRIDTNWRRGELKSPSGSGSGSGMDLGKKLLEAARAGQDDEVRILMANGADVNASDRGGGTPLHLAAAGGHLEIVEVLLKRGADVSAADLHGQSPLHLAAMVGHLEIVEVLLKYGADVNAKDTMGATPLHLAARSGHLEIVEELLKNGADMNAQDKFGKTTFDISTDNGNEDLAEILQKL | 45.9
3 | recombinant polypeptide SKP2-K19 (N-SKP2 (second polypeptide)-linker peptide-K19 (first polypeptide)-C) (other) MGGLDYKDDDDKASHRKHLQEIPDLSSNVATSFTWGWDSSKTSELLSGMGVSALEKEEPDSENIPQELLSNLGHPESPPRKRLKSKGSDKDFVIVRRPKLNRENFPGVSWDSLPDELLLGIFSCLCLPELLKVSGVCKRWYRLASDESLWQTLDLTGKNLSGSGSGSGMDLGKKLLEAARAGQDDEVRILMANGADVNASDRGGGTPLHLAAAGGHLEIVEVLLKRGADVSAADLHGQSPLHLAAMVGHLEIVEVLLKYGADVNAKDTMGATPLHLAARSGHLEIVEELLKNGADMNAQDKFGKTTFDISTDNGNEDLAEILQKL | 20.4
4 | recombinant polypeptide CRBN-K19 (N-CRBN (second polypeptide)-linker peptide-K19 (first polypeptide)-C) (other) MGGLDYKDDDDKASAGEGDQQDAAHNMGNHLPLLPAESEEEDEMEVEDQDSKEAKKPNIINFDTSLPTSHTYLGADMEEFHGRTLHDDDSCQVIPVLPQVMMILIPGQTLPLQLFHPQEVSMVRNLIQKDRTFAVLAYSNVQEREAQFGTTAEIYAYREEQDFGIEIVKVKAIGRQRFKVLELRTQSDGIQQAKVQILPECVLPSTMSAVQLESLNKCQIFPSKPVSREDQCSYKWWQKYQKRKFHCANLTSWPRWLYSLYDAETLMDRIKKQLREWDENLKDDSLPSNPIDFSYRVAACLPIDDVLRIQLLKIGSAIQRLRCELDIMNKCTSSGSGSGSGMDLGKKLLEAARAGQDDEVRILMANGADVNASDRGGGTPLHLAAAGGHLEIVEVLLKRGADVSAADLHGQSPLHLAAMVGHLEIVEVLLKYGADVNAKDTMGATPLHLAARSGHLEIVEELLKNGADMNAQDKFGKTTFDISTDNGNEDLAEILQKL | 28.2
5 | recombinant polypeptide K19-SPOP (N-K19 (first polypeptide)-linker peptide-SPOP (second polypeptide)-C) (other) MDLGKKLLEAARAGQDDEVRILMANGADVNASDRGGGTPLHLAAAGGHLEIVEVLLKRGADVSAADLHGQSPLHLAAMVGHLEIVEVLLKYGADVNAKDTMGATPLHLAARSGHLEIVEELLKNGADMNAQDKFGKTTFDISTDNGNEDLAEILQKLGSGSGSGSVNISGQNTMNMVKVPECRLADELGGLWENSRFTDCCLCVAGQEFQAHKAILAARSPVFSAMFEHEMEESKKNRVEINDVEPEVFKEMMCFIYTGKAPNLDKMADDLLAAADKYALERLKVMCEDALCSNLSVENAAEILILADLHSADQLKTQAVDFINYHASDVLETSGWKSMVVSHPHLVAEAYRSLASAQCPFLGPPRKRLKQS | 22.4
6 | recombinant polypeptide K19-SOCS2 (N-K19 (first polypeptide)-linker peptide-SOCS2 (second polypeptide)-C) (other) MDLGKKLLEAARAGQDDEVRILMANGADVNASDRGGGTPLHLAAAGGHLEIVEVLLKRGADVSAADLHGQSPLHLAAMVGHLEIVEVLLKYGADVNAKDTMGATPLHLAARSGHLEIVEELLKNGADMNAQDKFGKTTFDISTDNGNEDLAEILQKLSGSGSGSGPRNGTVHLYLTKPLYTSAPSLQHLCRLTINKCTGAIWGLPLPTRLKDYLEEYKFQVGS | 47.3
7 | recombinant polypeptide K19-CHIP (N-K19 (first polypeptide)-linker peptide-CHIP (second polypeptide)-C) (other) MDLGKKLLEAARAGQDDEVRILMANGADVNASDRGGGTPLHLAAAGGHLEIVEVLLKRGADVSAADLHGQSPLHLAAMVGHLEIVEVLLKYGADVNAKDTMGATPLHLAARSGHLEIVEELLKNGADMNAQDKFGKTTFDISTDNGNEDLAEILQKLSGSGSGSGRLNFGDDIPSALRIAKKKRWNSIEERRIHQESELHSYLSRLIAAERERELEECQRNHEGDEDDSHVRAQQACIEAKHDKYMADMDELFSQVDEKRKKRDIPDYLCGKISFELMREPCITPSGITYDRKDIEEHLQRVGHFDPVTRSPLTQEQLIPNLAMKEVIDAFISENGWVEDYGS | 28.3
8 | recombinant polypeptide K19-ASB1 (N-K19 (first polypeptide)-linker peptide-ASB1 (second polypeptide)-C) (other) MDLGKKLLEAARAGQDDEVRILMANGADVNASDRGGGTPLHLAAAGGHLEIVEVLLKRGADVSAADLHGQSPLHLAAMVGHLEIVEVLLKYGADVNAKDTMGATPLHLAARSGHLEIVEELLKNGADMNAQDKFGKTTFDISTDNGNEDLAEILQKLSGSGSGSGVKWESLGPESRGRRKVDPEALQVFKEARSVPRTLLCLCRVAVRRALGKHRLHLIPSLPLPDPIKKFLLHEGS | 39.8
9 | recombinant polypeptide DDB2-K19 (N-DDB2 (second polypeptide)-linker peptide-K19 (first polypeptide)-C) (other) MGGLDYKDDDDKASAPKKRPETQKTSEIVLRPRNKRSRSPLELEPEAKKLCAKGSGPSRRCDSDCLWVGLAGPQILPPCRSIVRTLHQHKLGRASWPSVQQGLQQSFLHTLDSYRILQKAAPFDRRASGSGSGSGMDLGKKLLEAARAGQDDEVRILMANGADVNASDRGGGTPLHLAAAGGHLEIVEVLLKRGADVSAADLHGQSPLHLAAMVGHLEIVEVLLKYGADVNAKDTMGATPLHLAARSGHLEIVEELLKNGADMNAQDKFGKTTFDISTDNGNEDLAEILQKL | 52.6
